Measurements published in patent US20060160174A1 (published 2006).

T1: soluble p97 (amino acids 20-710 of human p97 precursor), 6x his tag (human, UniProt P08582 20-710)
T1 construct: range 20-710; also called p97 melanotransferrin; recombinant p97; not shown: 6x his tag from vector pSecTag2
T1 sequence: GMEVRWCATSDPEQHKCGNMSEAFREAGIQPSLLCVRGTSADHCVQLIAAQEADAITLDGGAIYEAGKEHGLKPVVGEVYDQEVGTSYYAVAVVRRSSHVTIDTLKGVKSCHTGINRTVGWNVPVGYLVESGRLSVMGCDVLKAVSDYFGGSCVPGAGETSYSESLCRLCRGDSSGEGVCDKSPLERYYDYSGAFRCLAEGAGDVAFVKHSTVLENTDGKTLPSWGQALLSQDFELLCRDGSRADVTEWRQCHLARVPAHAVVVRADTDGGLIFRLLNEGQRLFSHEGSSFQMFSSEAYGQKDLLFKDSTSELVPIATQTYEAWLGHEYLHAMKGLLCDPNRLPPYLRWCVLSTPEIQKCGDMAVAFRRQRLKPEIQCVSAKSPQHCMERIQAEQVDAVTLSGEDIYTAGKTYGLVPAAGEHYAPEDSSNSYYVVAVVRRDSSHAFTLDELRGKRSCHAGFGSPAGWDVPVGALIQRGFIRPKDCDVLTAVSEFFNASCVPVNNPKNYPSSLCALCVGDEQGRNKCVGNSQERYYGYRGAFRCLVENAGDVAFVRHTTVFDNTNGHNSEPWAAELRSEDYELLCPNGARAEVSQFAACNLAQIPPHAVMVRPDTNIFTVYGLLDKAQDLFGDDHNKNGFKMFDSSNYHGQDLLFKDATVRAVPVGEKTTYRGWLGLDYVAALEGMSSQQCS


Legend:
[1] = molecular target: T1, soluble p97 (amino acids 20-710 of …); assay: SPR, Biacore 2000, 25 C; p97 immobilised on CM5 chip, scFv fusion injected; 1:1 model
[2] = molecular target: T1, soluble p97 (amino acids 20-710 of …); assay: solid-phase binding assay on wells coated with soluble p97; crude refold normalised on beta-lactamase activity; nitrocefin read-out, OD 490 nm [a]
[3] = molecular target: T1, soluble p97 (amino acids 20-710 of …); assay: SEC binding assay with purified p97 (discussion of the example)

| Binder | Kd [1] [nM] | koff [1] [s⁻¹] | kon [1] [M⁻¹ s⁻¹] | binding result [2] | percent of purified protein bound to antigen [3] [%] |
| --- | --- | --- | --- | --- | --- |
| parental L49-sFv-bL fusion protein FP95 (scFv, also called L49-scFv-bL; parental molecule) scFv: MEVQLQESGPSLVKPSQTLSLTCSVTGDSITSGYWNWIRKFPGNKLEYMGYISDSGITYYNPSLKSRISITRDTSKNQYYLQLNFVTAEDTATYNCARRTLATYYAMDYWGQGTSVTVSSGSTSGSGKPGSGEGSTKGDFVMTQTPLSLPVSLGDQASISCRASQSLVHSNGNTYLHWYLQKPGQSPKLLIYRVSNRFSGVPDRFSGSGSGTDFTLKISRVEAEDLGVYFCSQSTHVPPTFGGGTKLEIKRTPVSEKQLAEVVANTITPLMKAQSVPGMAVAVIYQGKPHYYTFGKADIAANKPVTPQTLFELGSISKTFTGVLGGDAIARGEISLDDAVTRYWPQLTGKQWQGIRMLDLATYTAGGLPLQVPDEVTDNASLLRFYQNWQPQWKPGTTRLYANASIGLFGALAVKPSGMPYEQAMTTRVLKPLKLDHTWINVPKAEEAHYAWGYRDGKAVRVSPGMLDAQAYGVKTNVQDMANWVMANMAPENVADASLKQGIALAQSRYWRIGSMYQGLGWEMLNWPVEANTVVETSFGNVALAPLPVAEVNPPAPPVKASWVHKTGSTGGFGSYVAFIPEKQIGIVMLANTSYPNPARVEAAYHILEALQ | 2.31 | 0.0007 | 304000 |  |  |
| L49-sFv-bL mutant FP945 (F H82B S) (scFv) scFv: MEVQLQESGPSLVKPSQTLSLTCSVTGDSITSGYWNWIRKFPGNKLEYMGYISDSGITYYNPSLKSRISITRDTSKNQYYLQLNSVTAEDTATYNCARRTLATYYAMDYWGQGTSVTVSSGSTSGSGKPGSGEGSTKGDFVMTQTPLSLPVSLGDQASISCRASQSLVHSNGNTYLHWYLQKPGQSPKLLIYRVSNRFSGVPDRFSGSGSGTDFTLKISRVEAEDLGVYFCSQSTHVPPTFGGGTKLEIKRTPVSEKQLAEVVANTITPLMKAQSVPGMAVAVIYQGKPHYYTFGKADIAANKPVTPQTLFELGSISKTFTGVLGGDAIARGEISLDDAVTRYWPQLTGKQWQGIRMLDLATYTAGGLPLQVPDEVTDNASLLRFYQNWQPQWKPGTTRLYANASIGLFGALAVKPSGMPYEQAMTTRVLKPLKLDHTWINVPKAEEAHYAWGYRDGKAVRVSPGMLDAQAYGVKTNVQDMANWVMANMAPENVADASLKQGIALAQSRYWRIGSMYQGLGWEMLNWPVEANTVVETSFGNVALAPLPVAEVNPPAPPVKASWVHKTGSTGGFGSYVAFIPEKQIGIVMLANTSYPNPARVEAAYHILEALQ |  |  |  | binds |  |
| L49-sFv-bL double mutant FP965 (K H39 Q, N H91 Y) (scFv) scFv: MEVQLQESGPSLVKPSQTLSLTCSVTGDSITSGYWNWIRQFPGNKLEYMGYISDSGITYYNPSLKSRISITRDTSKNQYYLQLNFVTAEDTATYYCARRTLATYYAMDYWGQGTSVTVSSGSTSGSGKPGSGEGSTKGDFVMTQTPLSLPVSLGDQASISCRASQSLVHSNGNTYLHWYLQKPGQSPKLLIYRVSNRFSGVPDRFSGSGSGTDFTLKISRVEAEDLGVYFCSQSTHVPPTFGGGTKLEIKRTPVSEKQLAEVVANTITPLMKAQSVPGMAVAVIYQGKPHYYTFGKADIAANKPVTPQTLFELGSISKTFTGVLGGDAIARGEISLDDAVTRYWPQLTGKQWQGIRMLDLATYTAGGLPLQVPDEVTDNASLLRFYQNWQPQWKPGTTRLYANASIGLFGALAVKPSGMPYEQAMTTRVLKPLKLDHTWINVPKAEEAHYAWGYRDGKAVRVSPGMLDAQAYGVKTNVQDMANWVMANMAPENVADASLKQGIALAQSRYWRIGSMYQGLGWEMLNWPVEANTVVETSFGNVALAPLPVAEVNPPAPPVKASWVHKTGSTGGFGSYVAFIPEKQIGIVMLANTSYPNPARVEAAYHILEALQ | 1.91 | 0.000765 | 400000 |  | 100 |
| L49-sFv-bL mutant FP950 (N H91 Y) (scFv) scFv: MEVQLQESGPSLVKPSQTLSLTCSVTGDSITSGYWNWIRKFPGNKLEYMGYISDSGITYYNPSLKSRISITRDTSKNQYYLQLNFVTAEDTATYYCARRTLATYYAMDYWGQGTSVTVSSGSTSGSGKPGSGEGSTKGDFVMTQTPLSLPVSLGDQASISCRASQSLVHSNGNTYLHWYLQKPGQSPKLLIYRVSNRFSGVPDRFSGSGSGTDFTLKISRVEAEDLGVYFCSQSTHVPPTFGGGTKLEIKRTPVSEKQLAEVVANTITPLMKAQSVPGMAVAVIYQGKPHYYTFGKADIAANKPVTPQTLFELGSISKTFTGVLGGDAIARGEISLDDAVTRYWPQLTGKQWQGIRMLDLATYTAGGLPLQVPDEVTDNASLLRFYQNWQPQWKPGTTRLYANASIGLFGALAVKPSGMPYEQAMTTRVLKPLKLDHTWINVPKAEEAHYAWGYRDGKAVRVSPGMLDAQAYGVKTNVQDMANWVMANMAPENVADASLKQGIALAQSRYWRIGSMYQGLGWEMLNWPVEANTVVETSFGNVALAPLPVAEVNPPAPPVKASWVHKTGSTGGFGSYVAFIPEKQIGIVMLANTSYPNPARVEAAYHILEALQ |  |  |  | binds |  |
| L49-sFv-bL double mutant FP960 (F H82B S, N H91 Y) (scFv) scFv: MEVQLQESGPSLVKPSQTLSLTCSVTGDSITSGYWNWIRKFPGNKLEYMGYISDSGITYYNPSLKSRISITRDTSKNQYYLQLNSVTAEDTATYYCARRTLATYYAMDYWGQGTSVTVSSGSTSGSGKPGSGEGSTKGDFVMTQTPLSLPVSLGDQASISCRASQSLVHSNGNTYLHWYLQKPGQSPKLLIYRVSNRFSGVPDRFSGSGSGTDFTLKISRVEAEDLGVYFCSQSTHVPPTFGGGTKLEIKRTPVSEKQLAEVVANTITPLMKAQSVPGMAVAVIYQGKPHYYTFGKADIAANKPVTPQTLFELGSISKTFTGVLGGDAIARGEISLDDAVTRYWPQLTGKQWQGIRMLDLATYTAGGLPLQVPDEVTDNASLLRFYQNWQPQWKPGTTRLYANASIGLFGALAVKPSGMPYEQAMTTRVLKPLKLDHTWINVPKAEEAHYAWGYRDGKAVRVSPGMLDAQAYGVKTNVQDMANWVMANMAPENVADASLKQGIALAQSRYWRIGSMYQGLGWEMLNWPVEANTVVETSFGNVALAPLPVAEVNPPAPPVKASWVHKTGSTGGFGSYVAFIPEKQIGIVMLANTSYPNPARVEAAYHILEALQ | 1.75 | 0.000638 | 364000 |  | 100 |
| 940 (scFv, also called FP940; L49-sFv-bL mutant FP940 (Y H78 A)) MEVQLQESGPSLVKPSQTLSLTCSVTGDSITSGYWNWIRKFPGNKLEYMGYISDSGITYYNPSLKSRISITRDTSKNQAYLQLNFVTAEDTATYNCARRTLATYYAMDYWGQGTSVTVSSGSTSGSGKPGSGEGSTKGDFVMTQTPLSLPVSLGDQASISCRASQSLVHSNGNTYLHWYLQKPGQSPKLLIYRVSNRFSGVPDRFSGSGSGTDFTLKISRVEAEDLGVYFCSQSTHVPPTFGGGTKLEIKRTPVSEKQLAEVVANTITPLMKAQSVPGMAVAVIYQGKPHYYTFGKADIAANKPVTPQTLFELGSISKTFTGVLGGDAIARGEISLDDAVTRYWPQLTGKQWQGIRMLDLATYTAGGLPLQVPDEVTDNASLLRFYQNWQPQWKPGTTRLYANASIGLFGALAVKPSGMPYEQAMTTRVLKPLKLDHTWINVPKAEEAHYAWGYRDGKAVRVSPGMLDAQAYGVKTNVQDMANWVMANMAPENVADASLKQGIALAQSRYWRIGSMYQGLGWEMLNWPVEANTVVETSFGNVALAPLPVAEVNPPAPPVKASWVHKTGSTGGFGSYVAFIPEKQIGIVMLANTSYPNPARVEAAYHILEALQ |  |  |  | binds |  |
| 935 (scFv, also called FP935; L49-sFv-bL mutant FP935 (Y H47 W)) MEVQLQESGPSLVKPSQTLSLTCSVTGDSITSGYWNWIRKFPGNKLEWMGYISDSGITYYNPSLKSRISITRDTSKNQYYLQLNFVTAEDTATYNCARRTLATYYAMDYWGQGTSVTVSSGSTSGSGKPGSGEGSTKGDFVMTQTPLSLPVSLGDQASISCRASQSLVHSNGNTYLHWYLQKPGQSPKLLIYRVSNRFSGVPDRFSGSGSGTDFTLKISRVEAEDLGVYFCSQSTHVPPTFGGGTKLEIKRTPVSEKQLAEVVANTITPLMKAQSVPGMAVAVIYQGKPHYYTFGKADIAANKPVTPQTLFELGSISKTFTGVLGGDAIARGEISLDDAVTRYWPQLTGKQWQGIRMLDLATYTAGGLPLQVPDEVTDNASLLRFYQNWQPQWKPGTTRLYANASIGLFGALAVKPSGMPYEQAMTTRVLKPLKLDHTWINVPKAEEAHYAWGYRDGKAVRVSPGMLDAQAYGVKTNVQDMANWVMANMAPENVADASLKQGIALAQSRYWRIGSMYQGLGWEMLNWPVEANTVVETSFGNVALAPLPVAEVNPPAPPVKASWVHKTGSTGGFGSYVAFIPEKQIGIVMLANTSYPNPARVEAAYHILEALQ |  |  |  | binds |  |
| L49-sFv-bL mutant FP930 (K H39 Q) (scFv) scFv: MEVQLQESGPSLVKPSQTLSLTCSVTGDSITSGYWNWIRQFPGNKLEYMGYISDSGITYYNPSLKSRISITRDTSKNQYYLQLNFVTAEDTATYNCARRTLATYYAMDYWGQGTSVTVSSGSTSGSGKPGSGEGSTKGDFVMTQTPLSLPVSLGDQASISCRASQSLVHSNGNTYLHWYLQKPGQSPKLLIYRVSNRFSGVPDRFSGSGSGTDFTLKISRVEAEDLGVYFCSQSTHVPPTFGGGTKLEIKRTPVSEKQLAEVVANTITPLMKAQSVPGMAVAVIYQGKPHYYTFGKADIAANKPVTPQTLFELGSISKTFTGVLGGDAIARGEISLDDAVTRYWPQLTGKQWQGIRMLDLATYTAGGLPLQVPDEVTDNASLLRFYQNWQPQWKPGTTRLYANASIGLFGALAVKPSGMPYEQAMTTRVLKPLKLDHTWINVPKAEEAHYAWGYRDGKAVRVSPGMLDAQAYGVKTNVQDMANWVMANMAPENVADASLKQGIALAQSRYWRIGSMYQGLGWEMLNWPVEANTVVETSFGNVALAPLPVAEVNPPAPPVKASWVHKTGSTGGFGSYVAFIPEKQIGIVMLANTSYPNPARVEAAYHILEALQ |  |  |  | binds |  |
